Experimental data: PMC3814365 (Nucleic Acids Research, 2013)

Target: Untagged Rps28a (S. cerevisiae, UniProt Q3E7X9 1-67)
Assay: SEC-MALS

Sequence of Untagged Rps28a (Q3E7X9 whole entry): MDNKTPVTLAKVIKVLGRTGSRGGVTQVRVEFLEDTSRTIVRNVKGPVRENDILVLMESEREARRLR

DDIDDPKYLPITQSLNITHLIHSATNSPSIN (peptide, UniProt P39998 201-231, looked up) [Edc3(201–231) lacking the His-GST tag]
stoichiometry N: 1
